Source: PMC11098746 (2024)

Biological target: T1, ADP375
T1 chain: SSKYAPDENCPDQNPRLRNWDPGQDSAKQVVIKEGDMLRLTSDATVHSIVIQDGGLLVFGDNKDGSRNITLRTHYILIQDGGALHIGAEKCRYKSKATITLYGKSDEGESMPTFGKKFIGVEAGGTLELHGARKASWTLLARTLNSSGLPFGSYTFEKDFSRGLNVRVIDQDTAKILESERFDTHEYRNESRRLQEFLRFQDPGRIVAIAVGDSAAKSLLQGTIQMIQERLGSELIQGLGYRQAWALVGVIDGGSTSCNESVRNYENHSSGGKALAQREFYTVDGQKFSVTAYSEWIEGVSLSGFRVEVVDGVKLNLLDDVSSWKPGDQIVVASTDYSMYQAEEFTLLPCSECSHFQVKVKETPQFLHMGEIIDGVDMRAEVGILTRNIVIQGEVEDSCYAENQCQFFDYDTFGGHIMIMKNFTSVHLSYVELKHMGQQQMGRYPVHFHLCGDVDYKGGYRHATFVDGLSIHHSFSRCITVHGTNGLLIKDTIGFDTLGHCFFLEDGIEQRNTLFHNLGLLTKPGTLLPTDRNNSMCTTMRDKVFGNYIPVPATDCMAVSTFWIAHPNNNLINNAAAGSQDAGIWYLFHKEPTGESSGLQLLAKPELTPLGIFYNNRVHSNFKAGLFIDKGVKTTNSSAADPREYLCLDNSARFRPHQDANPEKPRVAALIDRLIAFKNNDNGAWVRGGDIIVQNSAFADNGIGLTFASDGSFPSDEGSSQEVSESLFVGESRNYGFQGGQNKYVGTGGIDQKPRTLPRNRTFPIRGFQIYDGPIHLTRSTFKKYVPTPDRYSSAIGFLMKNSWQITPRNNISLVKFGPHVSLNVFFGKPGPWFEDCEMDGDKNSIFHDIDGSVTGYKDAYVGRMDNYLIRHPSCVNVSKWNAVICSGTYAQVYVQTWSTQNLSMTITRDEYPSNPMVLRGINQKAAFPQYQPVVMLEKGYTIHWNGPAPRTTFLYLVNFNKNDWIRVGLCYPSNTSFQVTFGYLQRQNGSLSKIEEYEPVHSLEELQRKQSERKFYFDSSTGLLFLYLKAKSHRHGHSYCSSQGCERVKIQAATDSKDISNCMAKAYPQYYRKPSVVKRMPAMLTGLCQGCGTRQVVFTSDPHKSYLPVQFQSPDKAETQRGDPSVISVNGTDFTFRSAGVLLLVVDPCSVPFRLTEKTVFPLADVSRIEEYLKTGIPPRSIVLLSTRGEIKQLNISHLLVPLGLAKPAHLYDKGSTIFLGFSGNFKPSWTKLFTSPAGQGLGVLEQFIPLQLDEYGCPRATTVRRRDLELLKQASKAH
Assay: AVEXIS screen signal:noise (double-corrected)

B1: ADP237 (protein)
chain: TKKKVSVSEINFDSAVDDVQWCGNNHMTVLVKTVKGRLYRSSDGGKIWTNIAGNLADKENNKADPSSNHMNEMTTVDLIMVNSVNKNIVLIIGNQKNHYISEDSGETFRLLNYQNKINFWQFHSTKTHWALVSSWTEACYSNDDNSGECMQTLSLTKDLGRTFQLIDIYVVQFNWGDKESHLEDTIYYTRHKNRNGHQQRFSGWSKDVDFVATHNFGKSVDVLVKQGNKFLISNGYIFVAKLNDVIKQTVNMMVSTDGGKTFNKANLPENIHEKSYTVLDTSEGSIMLHVNHGTSSEKINTGNVYISDASGLNYALSLPNNIRTSSGECEFDRVLSLDGVYIANFLDVNNEIKDEDLRFQNFKSAIEEDIAPFETNTEKRKKQYNKGKNEDAVRTVISFNKGGEWSYLKAPKVDSRGNKYECGDNCYLHLHGITNYHQYAPFYSIENAVGIIMGTGNVGSHLRYESDEVNTFLSRDGGVTWIEAHKGPYIYEYGDYGGLIVMADDLRKTNQIVFSWNEGQSWFDFELGQFSIDVDNIVAEPNSASVEFLVYGTRNDVGVLYHLDFNALGQPLCKGLWAADSVSSDYETWSPTSGNFNDKCILGRKITYTRRKQTSECFNGKDLKRTVDKKPCECTPEDYECETGFTRKIGSYECKPNDPTLTIEGCTSSSYFYANAYRKVPGDICVNGWVPEKVPVPCPSYAPFNKAAK
modifications: bait human Fc-tagged dimer; N-glycosylation sequons mutated in Plasmodium baits
In the case of B1, the binding score is reported as 24.4.
